B1: AnfG, G subunit of the Fe nitrogenase catalytic component (Rhodobacter capsulatus) (natural protein, UniProt Q07934 1-115, looked up)
chain: MTDISEKLDPLVDYIMKNCLWQFNSRGWDRLKQNAGILSQTCEILCGEEPVHETAMDRCYWVDAVILSRAYKARFPWLMAMTKPEIKSLFKALHEKIDHLTVHGSLNTELTVPHY
notes: AnfG, delta (G) subunit of the Fe-only nitrogenase, Rhodobacter capsulatus B10S; the anfHDGK operon was amplified whole from genomic DNA; Single subunit, written for the subunit-to-subunit rows of the complexes solved here
B2: Fe nitrogenase reductase component AnfH2 (Rhodobacter capsulatus) (enzyme, UniProt Q07942 1-275, looked up)
chain: MTRKIAIYGKGGIGKSTTTQNTAAALAFFHEKNVFIHGCDPKADSTRLILGGLPQQTVMDTLRIEGAERVTVDKVVKTGFKDIRCVESGGPEPGVGCAGRGVITAIDLMEENEAYSEDLDFLFFDVLGDVVCGGFAMPIRDGKAEEVYIVASGEMMAIYAANNICKGLAKYARQSGVRLGGIICNSRNVDGEKEFLEEFTKAIGTKMIHFVPRDNIVQKAEFNKQTVTEFQPEANQAQEYRELGRKIIENEDFVIPKPLAMDELEAMVVKYGLMD
notes: AnfH, nitrogenase iron protein of the Fe-only nitrogenase, Rhodobacter capsulatus B10S; the anfHDGK operon was amplified whole from genomic DNA; Homodimer with one [Fe4S4] cluster between the two chains; in the trapped complex one MgADP·AlF3 per chain; His6-tag inserted without any linker; no cleavage step is described; also called H subunit
B3: AnfK, K subunit of the Fe nitrogenase catalytic component (Rhodobacter capsulatus) (natural protein, UniProt Q07935 1-460, looked up)
chain: MTCQVTQKAREGTINPIFTCQPAGAQFASIGIKDCIGIVHGGQGCVMFVRLLISQHMKESFEIASSSVHEDGAVFGALDRVETAVEVLLTRYPDVKVVPIITTCSTEIIGDDVDGLLSKLEDELLPTKFPGREVHLLTVHCPSFVGSMITGYDKAVHDFVKKFATKDEPSDKINLITGWVNPGDVKELKHLLEVMEVKANVLFEVESFDSPLMPDLEHHSHGSTTIEDLRDTANAKGTIALNRYEGMKAADYLKKKFKVPAVIGPTPVGIRNTDAFLKAVSEMTGQPIPAQLVKERGLALDAIADIGHMFLADKRVAIYANPDLAIGLTEFCLDLEMKPKLLLLGDDNSGYVKDPRVVALQENAPDLEIVTNADFWDLESRIQQGLELDLILGHSKGRFISIDYKVPMVRVGFPTYDRAGMYRHPVLGYGGAMFLAETMANTLFADMEAKKNKEWILNVW
notes: AnfK, beta (K) subunit of the Fe-only nitrogenase, Rhodobacter capsulatus B10S; the anfHDGK operon was amplified whole from genomic DNA; Single subunit, written for the subunit-to-subunit rows of the complexes solved here

Tests used:
[1] = target: B2; assay: cryo-EM structure; ADP·AlF3-stabilized Anf(DGK)2(H2)2 complex after SEC, 1 mg/ml, anaerobic plunge freezing, no detergent; 2.35 Å, C2 symmetry; details: both partners purified
[2] = target: T1, AnfD, D subunit of the Fe nitrogenase catalytic component (Rhodobacter capsulatus) (Rhodobacter capsulatus, UniProt Q07933 1-526); assay: mass photometry; individual nitrogenase components; 500 nM stock diluted 0.5 µl into 19.5 µl of 150 mM NaCl, 50 mM Tris pH 7.8, 10% glycerol, 10 mM dithionite; details: both partners purified
T1 construct: AnfD, alpha (D) subunit of the Fe-only nitrogenase, Rhodobacter capsulatus B10S; the anfHDGK operon was amplified whole from genomic DNA; Single subunit, written for the subunit-to-subunit rows of the complexes solved here

[3] = target: the molecule itself; assay: as above
[4] = target: T2, Fe nitrogenase catalytic component Anf(DGK)2 (Rhodobacter capsulatus) (Rhodobacter capsulatus, UniProt Q07933 1-526; Q07934 1-115; Q07935 1-460); assay: SEC; 4 nmol catalytic and 32 nmol reductase component, 1 h at 30 °C in 100 mM MOPS, 50 mM Tris, 100 mM NaCl pH 7.3, 5 mM dithionite, 4 mM NaF, 0.2 mM AlCl3, 8 mM MgCl2, 1 mM ATP (ADP·AlF3 trap); SEC in 50 mM Tris pH 7.8, 200 mM NaCl, 5 mM dithionite; anaerobic; details: both partners purified
T2 construct: AnfD, alpha (D) subunit of the Fe-only nitrogenase, Rhodobacter capsulatus B10S; the anfHDGK operon was amplified whole from genomic DNA; AnfG, delta (G) subunit of the Fe-only nitrogenase, Rhodobacter capsulatus B10S; AnfK, beta (K) subunit of the Fe-only nitrogenase, Rhodobacter capsulatus B10S; Heterohexamer with two P-clusters [Fe8S7] and two FeFeco [Fe8S9C-(R)-homocitrate]; Strep-tag II …

[5] = target: T1, AnfD, D subunit of the Fe nitrogenase …; assay: cryo-EM structure; catalytic component Anf(DGK)2 alone with CHAPSO (0.4% m/V) added on the grid right before plunge freezing; 2.49 Å, C2 symmetry; details: both partners purified

Binder: B1
binding result [1]: binds | binding result [2]: binds

Binder: B2
stoichiometry N [3]: 2 subunits in the oligomer | stoichiometry N [4]: 2 AnfH2 per Anf(DGK)2

Binder: B3
binding result [5]: binds

Source: PMC10803253, “Structural insights into the iron nitrogenase complex” (Nature Structural & Molecular Biology, 2023)
